± gives the uncertainty stated by the source.
test: amyloid nucleation score (Sup35N fusion, yeast selection) (log enrichment); library NNK1; higher = more nucleation; inactive = no reads after selection
Outline: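 The nucleation score equals the log enrichment of output over input reads from DiMSum, centred on the mode score of non-aggregating sequences. It was computed only for sequences with 100 or more input reads. The reads came from Illumina sequencing of plasmid inserts from psi-negative yeast expressing Sup35N fused to peptides of 20 random codons, induced with 100 μM copper sulfate for 24 hours and grown 7 days at 30°C without adenine and uracil.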

Point of comparison: GSRCRRLWDM, amyloid nucleation score -0.02 ± 0.55. Against it:
- SMTRIANSMINVFGENPSNS — within error, -0.267 ± 0.69
- SLIYNRIRFLDGF — within error, 0.925 ± 1.1
- TLDRWTVWDLR — within error, 0.275 ± 0.32
- MAEINYWTFSLVLELSARCV — within error, -1.07 ± 1.2
- ATQSVFSKWVGGIRWWCVLL — within error, -0.65 ± 0.88
- SFDGDRLNVVMAQWL — within error, -0.357 ± 0.58
- MAPRFIDVMQ — within error, -0.94 ± 0.97
- RSSSHYRSDERPIDFVNEQE — within error, -1.16 ± 0.77
- LSWIR — within error, -0.09 ± 0.66
- VWMRVKIGGVWC — higher, 1.58 ± 0.47
- DAWEDGSKMYESLGV — within error, -1.01 ± 0.56
- FMFLESRPSNCSTTPCKY — within error, -0.29 ± 0.6
- ERYPCDALDVDLRLTLCRKG — within error, 0.222 ± 0.48
- SISRGWFMWEDNRISRFLLI — within error, 0.266 ± 0.37
- GIGHELFSNWVMEQLA — within error, -0.23 ± 0.35
- IFSCGIGHWV — within error, 0.462 ± 0.49
- GLGMSRPYGSAPTRPDQNKI — within error, 0.275 ± 1.1
- RLFTYYTVRNPYVADKFYNR — higher, 5.174 ± 0.051
- LAFKGAITPSDFGLNNRYRF — within error, -0.037 ± 1.4
- RLYSDAQ — within error, -0.003 ± 0.71
- IGGPYLVGSHKLKLWPWLES — within error, -0.575 ± 0.34
- SSVFKRMWPLLFVIPRQMH — within error, 0.02 ± 0.43
- DTVVGSAFCQGMYLSESVML — higher, 1.56 ± 0.76
- SGNGG — within error, -0.158 ± 0.34
- VLAVCKVYASWYFTFWMF — higher, 4 ± 0.088
- SVLSMLIWYKPHREGSLN — within error, 0.812 ± 1.1
- ISNYNFNRWHAVSNLGRCIS — within error, -0.033 ± 0.73
- KIMLSRMYNQYMGCQVKFW — within error, -0.409 ± 0.51
- GTYSKG — within error, 0.7 ± 0.97
- DSNATTHVRMKVSLTGRFLR — higher, 4.8 ± 0.056
- NNGRLYVTIRLMDINLVVHT — within error, 0.616 ± 0.43
- YLTYAPQVWLSAGFNSNEGS — higher, 5.71 ± 0.078
- SALLVMPRVAVSSTMVGKAT — within error, 0.938 ± 0.45
- VVTVLGVGLDSSSSGWWFVA — within error, 0.168 ± 0.46
- SQIDYNDSCWNLGNP — within error, 0.164 ± 0.39
- PYAWSVNC — within error, -0.579 ± 0.4
- TGYFNTRVWLDRLDYVLETN — within error, -0.44 ± 0.29
- RWSYA — within error, 0.981 ± 0.58
- VKRKGAKISWQGAILRASVV — within error, -0.963 ± 0.7
- FRTHD — within error, 0.351 ± 0.97
- SYWCLRAYLRLWLL — within error, -0.164 ± 0.42
- HILGPLIRSMMIFSCLVSVV — higher, 1.29 ± 0.36
- TRFLNDIVMSIDSSIIDPTC — within error, 0.809 ± 0.7
- FWPCFSWYC — higher, 2.16 ± 0.15
- TRIMVDFLLDWHCRMVKLVN — within error, 0.33 ± 0.44
- FSTFVGHYLSKMKWITVVNS — within error, 0.531 ± 0.36
- FKNLCRAVS — within error, 0.059 ± 0.53
- DLLFAVYYELEHGFERVAGR — higher, 4.78 ± 0.081
- KYRVSLNFRWRFRLMISHNG — within error, -0.002 ± 0.4
- WFVTFVWVSSVRTILP — within error, 0.361 ± 1
- KPMFSLGSNYKMCIYHGCFM — higher, 8.183 ± 0.061
- KLALRKGSRDVH — within error, 0.661 ± 0.97
- GFGGSGLTWGSRVCGV — within error, -1.5 ± 2.4
- FSMTCYVWLITLAKMTRTFQ — within error, 0.159 ± 0.73
- WVILVNDGVNVCCFSVRVWA — within error, -0.903 ± 2.4
- NFRSFYKQF — within error, -0.451 ± 1.4
- TLNQHY — within error, 0.025 ± 0.55
- LVTFRGGYNVDVIMWNNVRR — higher, 3.69 ± 0.063
- QMYVVMLVGVLFCWGTPYRL — within error, 0.301 ± 0.39
- VRLVVQWEKVKDCLIVWD — higher, 1.85 ± 0.12
- TVGSLRAW — within error, 1.15 ± 0.62
- RSYGLAFGYFHNHVRSFARV — within error, -0.735 ± 0.81
- VPTMEMTVAYGSWTCSERCE — within error, -0.468 ± 0.44
- VSFRTLYGRI — within error, -0.187 ± 0.27
- MPGRNLRLNKVR — within error, 0.273 ± 0.4
- HYIVDLEQLQWDVWGIFSDS — within error, 0.058 ± 0.73
- LGNMHREDYGSSGSRARFKG — within error, -0.612 ± 0.74
- RVYENNIY — within error, -1.05 ± 1.7
- YKHKTFIPRFTYNETVVYYV — higher, 4.85 ± 0.087
- PEARWWERMDKGCMKVFHFK — within error, 0.945 ± 0.44
- TRSMALL — within error, -0.098 ± 0.71
- CFIGANPLRNQWMRSTRIVP — within error, 0.28 ± 0.61
- LDHLVNDTVEILQYGAPSIH — within error, 0.733 ± 0.88
- ISIRIEDFLYSQ — within error, 0.237 ± 0.57
- LRGFRFVAIMLSVYRKVKVD — within error, -0.531 ± 0.34
- TSYQA — within error, -0.115 ± 0.22
- PAATNAWGWRVPDPGSMIPS — within error, -0.3 ± 0.42
- NLVFW — within error, 0.562 ± 0.69
- VRNDLNTH — within error, 0.377 ± 0.19
- VLIDMSGSCSKAMHAIRQDR — within error, 0.218 ± 0.73

In the case of QELPFRRSYNLSNCSDNWHS, the amyloid nucleation score is reported as “inactive”.
With VFLVIVRYWCFFYHPVDTAN the amyloid nucleation score was “inactive”.
For YWCNYVIVMSCKWG, the amyloid nucleation score was “inactive”.
For LISGVS, the amyloid nucleation score was “inactive”.
With TSPYAFKRWFSLGLYDLSRF the amyloid nucleation score was “inactive”.
For RALALEPNSI, the amyloid nucleation score was “inactive”.
For TGNGRWVDFFRYRYGLKSRS, the amyloid nucleation score was “inactive”.

Source: the supplement of paper PMC12042874
